The target of assay [1] is T1, Human ALK F1174L (human, UniProt Q9UM73 19-1620).
T1 construct: Expressed in SHEP neuroblastoma cells (IF) and in tumours of the ALK F1174L/MYCN transgenic mouse (IHC)
Kind of assay: immunofluorescence on SHEP cells expressing ALK F1174L, 1:100 dilution.

Assay [2] deals with T2, Full-length human anaplastic lymphoma kinase (ALK) receptor, wild type (human, UniProt Q9UM73 19-1620).
T2 construct: Tested in cell lysates (western blot, IP) and on fixed cells (IF, ICC); HA- or FLAG-tagged in the co-IP dimerisation assay and FLAG-tagged and purified in the MMP-9 cleavage assay; also called WT ALK; ALK WT
Kind of assay: western blot of NB cell lysates.

Assay [3] addresses T3, Irrel-hFc.
T3 construct: also called irrelevant hFc protein
Kind of assay: ELISA of hybridoma supernatant on a plate coated with an irrelevant hFc protein, detection with anti-mouse kappa light chain antibody; control row Co 0.062. The method, then:
(§1) HAT-selected fused cells were distributed in 96 well plates and the hybridoma supernatants were subjected to several rounds of screening. Initial screening was performed using ELISA against human Fc to test antigen binding with the ALK ECD-human Fc fusion protein. […] These were rescreened by FACS against Ba/F3 and neuroblastoma (NB) cells expressing ALK. […] (A) Binding of hybridoma supernatants using an antigen-binding capture assay. The plate was coated with goat-anti-mouse IgG Fc, incubated with hybridoma supernatants, followed by ALK-HRP and visualized using an HRP substrate. (B) Binding of selected hybridoma supernatants to a human Fc antibody using ELISA screening. Plates were coated with the ALK ECD-human Fc fusion protein (ALK-hFc) together with an irrelevant hFc protein and visualized using an anti-mouse kappa light chain antibody.
For orientation: ELISA stands for enzyme-linked immunosorbent assay.

For assay [4], the target named is T4, Shed ALK extracellular domain fragment (ALK 1-654) (human, UniProt Q9UM73 19-654).
T4 construct: Fragment released into conditioned media or serum by cleavage at Asn654-Leu655; also called SF; secreted extracellular fragment
Kind of assay: sandwich ELISA, 7F7 capture, 8G7 detection, ALK-ECD protein as the varied antigen. The source says: (B) ELISA of the shed ALK ECD protein in sera from patients with neuroblastoma.

Assay [5] has as its target T5, ALK-hFc.
T5 construct: also called ALK ECD-human Fc fusion protein; ALK-ECD-hFc; not shown: Human IgG2 Fc of the vector pFUse-hIgG2-FC2, and any vector-derived junction residues
Nature of the assay: ELISA of hybridoma supernatant on a plate coated with ALK-hFc, detection with anti-mouse kappa light chain antibody; control row Co 0.067. How it is done:
as §1

In assay [6] the target is T6, ALK-LF655FY.
T6 construct: also called NIH3T3 ALK LF655FY; MSCV-LF655FY
Kind of assay: immunofluorescence on NIH3T3 cells expressing the construct.
Description: A 1:100 antibody dilution was used.
Cells (0.5×10⁶ per well) were seeded into six-well plates and grown on glass coverslips for 24 hr. before fixation in 4% paraformaldehyde in PBS for 15 min at room temperature (RT), washed with PBS, permeabilized in 0.1% Triton X-100, and blocked with PBS containing 0.05% Tween-20 and 5% BSA for 1 hr. to block nonspecific binding. […] Images were collected on a Zeiss AXIO Imager Z1 fluorescence microscope. […] After 24 hours, cells were washed once in PBS, fixed in 4% paraformaldehyde in PBS, washed, permeabilized in 0.1% Triton X-100, and blocked in PBS containing 10% horse serum. […] The next day, cells were washed, incubated in goat anti-rabbit IgG secondary antibody (1:1000) for 1 hr. washed, and incubated in Streptavidin-TexasRed (1:1000) for 1 hr. Cover slips were mounted onto slides using mounting medium containing DAPI. Images were collected on a Zeiss AXIO Imager Z1 fluorescence microscope.

Assay [7] has as its target T7, 140 kDa truncated membrane-bound C-terminal ALK fragment (human, UniProt Q9UM73 655-1620).
T7 construct: also called CTF; 140 kDa fragment
Kind of assay: western blot of NB cell lysates. (In western blotting, separated proteins are transferred to a membrane and probed.)

Substitutions are numbered along the chain they refer to.

T5 sequence (chain, as listed by the source limits assumed): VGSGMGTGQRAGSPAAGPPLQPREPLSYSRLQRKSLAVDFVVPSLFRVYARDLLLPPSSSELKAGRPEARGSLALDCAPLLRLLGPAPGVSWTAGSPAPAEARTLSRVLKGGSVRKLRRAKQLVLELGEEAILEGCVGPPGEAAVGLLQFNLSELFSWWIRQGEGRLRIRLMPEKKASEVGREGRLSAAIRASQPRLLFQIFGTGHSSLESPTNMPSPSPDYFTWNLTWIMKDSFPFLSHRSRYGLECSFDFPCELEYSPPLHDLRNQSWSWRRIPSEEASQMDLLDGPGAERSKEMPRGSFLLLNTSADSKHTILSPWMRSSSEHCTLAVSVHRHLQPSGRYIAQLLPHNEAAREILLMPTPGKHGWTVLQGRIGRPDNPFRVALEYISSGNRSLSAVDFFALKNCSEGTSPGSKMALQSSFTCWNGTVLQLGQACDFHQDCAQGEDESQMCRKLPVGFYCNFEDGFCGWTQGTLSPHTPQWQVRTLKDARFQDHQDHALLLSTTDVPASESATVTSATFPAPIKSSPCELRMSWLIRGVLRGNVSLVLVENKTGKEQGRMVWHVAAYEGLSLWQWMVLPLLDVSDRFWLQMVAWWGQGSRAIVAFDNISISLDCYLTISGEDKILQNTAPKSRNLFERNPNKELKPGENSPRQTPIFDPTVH
T4 sequence (Q9UM73 19-654): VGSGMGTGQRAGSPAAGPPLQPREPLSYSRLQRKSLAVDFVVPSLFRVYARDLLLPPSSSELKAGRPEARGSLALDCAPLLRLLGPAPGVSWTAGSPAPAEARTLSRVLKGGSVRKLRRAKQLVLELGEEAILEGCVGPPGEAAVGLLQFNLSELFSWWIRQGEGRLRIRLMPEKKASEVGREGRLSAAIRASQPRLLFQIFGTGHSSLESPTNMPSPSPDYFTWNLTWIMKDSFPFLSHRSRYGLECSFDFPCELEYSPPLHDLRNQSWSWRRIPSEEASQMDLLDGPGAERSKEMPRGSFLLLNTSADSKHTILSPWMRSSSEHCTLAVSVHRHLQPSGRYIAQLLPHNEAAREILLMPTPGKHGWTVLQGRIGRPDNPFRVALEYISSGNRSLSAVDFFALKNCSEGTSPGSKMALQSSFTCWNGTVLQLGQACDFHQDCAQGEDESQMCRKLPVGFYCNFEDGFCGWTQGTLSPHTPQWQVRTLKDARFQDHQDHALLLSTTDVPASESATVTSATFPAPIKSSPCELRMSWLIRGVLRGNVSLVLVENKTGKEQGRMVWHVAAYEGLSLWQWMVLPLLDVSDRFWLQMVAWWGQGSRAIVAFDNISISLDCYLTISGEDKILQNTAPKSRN
T6 sequence (receptor chain, as listed by the source): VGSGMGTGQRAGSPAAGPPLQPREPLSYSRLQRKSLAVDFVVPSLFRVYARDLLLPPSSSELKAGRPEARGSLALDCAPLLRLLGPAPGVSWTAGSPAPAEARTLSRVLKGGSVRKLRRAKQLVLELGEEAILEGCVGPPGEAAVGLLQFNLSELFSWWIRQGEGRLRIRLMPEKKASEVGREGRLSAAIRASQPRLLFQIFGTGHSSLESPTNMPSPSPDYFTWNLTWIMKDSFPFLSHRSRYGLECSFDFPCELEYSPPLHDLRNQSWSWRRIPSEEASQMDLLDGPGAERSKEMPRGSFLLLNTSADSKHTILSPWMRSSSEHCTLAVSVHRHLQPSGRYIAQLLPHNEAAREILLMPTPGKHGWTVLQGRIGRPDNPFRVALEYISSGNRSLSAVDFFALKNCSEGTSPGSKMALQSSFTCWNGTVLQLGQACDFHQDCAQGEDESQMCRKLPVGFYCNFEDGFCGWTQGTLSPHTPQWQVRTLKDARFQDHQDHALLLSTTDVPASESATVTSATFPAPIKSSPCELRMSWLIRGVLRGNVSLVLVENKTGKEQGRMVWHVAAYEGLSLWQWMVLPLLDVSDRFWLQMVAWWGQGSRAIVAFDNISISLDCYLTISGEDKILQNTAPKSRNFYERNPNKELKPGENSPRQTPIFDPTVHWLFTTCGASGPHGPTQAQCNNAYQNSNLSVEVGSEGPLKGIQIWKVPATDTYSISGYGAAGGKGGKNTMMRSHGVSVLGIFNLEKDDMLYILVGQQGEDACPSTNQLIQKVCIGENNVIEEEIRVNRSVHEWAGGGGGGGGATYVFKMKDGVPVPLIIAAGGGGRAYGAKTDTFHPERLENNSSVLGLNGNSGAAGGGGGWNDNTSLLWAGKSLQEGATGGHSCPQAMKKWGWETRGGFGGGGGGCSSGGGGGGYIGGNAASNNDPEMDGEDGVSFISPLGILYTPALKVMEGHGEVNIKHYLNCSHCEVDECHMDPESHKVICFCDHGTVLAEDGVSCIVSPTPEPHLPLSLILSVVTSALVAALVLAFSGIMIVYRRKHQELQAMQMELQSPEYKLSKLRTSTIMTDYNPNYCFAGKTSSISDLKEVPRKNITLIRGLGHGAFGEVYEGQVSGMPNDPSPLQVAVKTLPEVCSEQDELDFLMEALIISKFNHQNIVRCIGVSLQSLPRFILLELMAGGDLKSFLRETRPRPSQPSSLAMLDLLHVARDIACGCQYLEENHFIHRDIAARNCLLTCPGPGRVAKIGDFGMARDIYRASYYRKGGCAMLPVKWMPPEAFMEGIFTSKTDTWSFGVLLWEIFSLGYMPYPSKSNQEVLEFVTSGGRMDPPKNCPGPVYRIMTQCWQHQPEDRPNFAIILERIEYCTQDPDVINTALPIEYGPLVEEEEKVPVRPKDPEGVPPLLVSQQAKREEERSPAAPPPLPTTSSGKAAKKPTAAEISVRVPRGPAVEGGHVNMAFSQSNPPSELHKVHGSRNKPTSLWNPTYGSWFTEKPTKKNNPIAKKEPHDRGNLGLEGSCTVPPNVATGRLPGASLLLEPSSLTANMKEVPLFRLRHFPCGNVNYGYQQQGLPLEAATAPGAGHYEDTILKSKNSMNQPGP
T1 sequence (Q9UM73 19-1620 F1174L limits assumed): as the sequence (receptor chain, as listed by the source) above, with F637L, Y638F, F1156L counted along it
T2 sequence (Q9UM73 19-1620 limits assumed): as the sequence (receptor chain, as listed by the source) above, with F637L, Y638F counted along it
T7 sequence (Q9UM73 655-1620): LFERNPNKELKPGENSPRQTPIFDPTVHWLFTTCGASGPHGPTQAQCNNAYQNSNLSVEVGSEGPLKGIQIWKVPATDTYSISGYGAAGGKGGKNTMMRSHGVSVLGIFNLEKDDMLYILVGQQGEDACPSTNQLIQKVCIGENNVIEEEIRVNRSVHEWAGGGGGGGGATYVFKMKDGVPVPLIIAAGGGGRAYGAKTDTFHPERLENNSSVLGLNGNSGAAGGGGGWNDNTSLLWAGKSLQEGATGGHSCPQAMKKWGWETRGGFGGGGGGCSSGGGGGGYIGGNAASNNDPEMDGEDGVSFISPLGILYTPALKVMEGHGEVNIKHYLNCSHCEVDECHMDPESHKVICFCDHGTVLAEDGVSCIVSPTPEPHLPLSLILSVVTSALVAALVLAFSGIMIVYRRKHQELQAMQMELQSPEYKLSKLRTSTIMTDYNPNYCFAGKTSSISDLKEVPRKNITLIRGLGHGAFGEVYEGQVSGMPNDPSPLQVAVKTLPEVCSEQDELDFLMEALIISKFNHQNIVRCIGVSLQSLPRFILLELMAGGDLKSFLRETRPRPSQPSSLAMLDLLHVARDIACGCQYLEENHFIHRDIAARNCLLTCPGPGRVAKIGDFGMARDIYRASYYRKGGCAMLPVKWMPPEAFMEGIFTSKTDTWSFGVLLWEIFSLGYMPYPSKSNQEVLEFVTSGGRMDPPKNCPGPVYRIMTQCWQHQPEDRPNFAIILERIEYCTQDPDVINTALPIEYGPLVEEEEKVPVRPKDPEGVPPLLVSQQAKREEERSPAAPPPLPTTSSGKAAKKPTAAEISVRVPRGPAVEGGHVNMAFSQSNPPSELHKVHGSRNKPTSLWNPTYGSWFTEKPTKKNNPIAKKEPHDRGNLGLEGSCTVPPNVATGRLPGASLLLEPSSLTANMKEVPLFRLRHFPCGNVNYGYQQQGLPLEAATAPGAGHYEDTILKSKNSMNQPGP

B1: Monoclonal anti-ALK antibody 7F7 (antibody, IgG1, V domains shown)
VH: QVQLQQSGAELVRPGASVTLSCKASGYTFTDYEIHWMKQTPVHGLEWIGTIDPETGGTAYNQKFKGKAILTADKSSSTAYMELRSLTSEDSAVYYCTRCYYGSSWYFDVWGTGTTVTVSS
VL: DIQMTQTTSSLSASLGDRVTISCSASQGISNYLNWYQQKPDGTVKLLIYYTSSLHSGVPSRFSGSGSGTDYSLTISNLELEDIATYYCQQYSKVPRTFGGGTKLEIKR
notes: also called Ab 7F7
As for B1, the binding result in assay [1], in assay [2] and in assay [4] was “binds” in each case. Moreover, the “ELISA reading (name not given)” value in assay [3] came out at 0.063; in assay [5], 0.872.

B2: Monoclonal anti-ALK antibody 5H3 (antibody, IgG1, V domains shown)
VH: QVQLQQSGAELVRPGASVTLSCKASGYTFTDYEMHWVKQTPVHGLEWIGAIDPETGGSAYNQKFKAKAILTADRSSSTAYMELRSLTSEDSAVYYCTRTRYYGSSPAMDYWGQGTSVTVSS
VL: B1 VL with S30G, L80P, V94L, R96Y
notes: The variable part as printed looks identical to that of 8G7; also called Ab 5H3
B2: the “ELISA reading (name not given)” value worked out at 0.064 in assay [3] and 1.01 in assay [5].

B3: Mouse monoclonal anti-ALK 8G7 (antibody, IgG1, V domains shown)
VH: B2 VH
VL: DIQMTQTTSSLSASLGDRVTISCSASQGIGNYLNWYQQKPDGTVKLLIYYTSSLHSGVPSRFSGSGSGTDYSLTISNLEPEDIATYYCQQYSKLPYTFGGGTKLEIK
notes: constant regions are not; also called Ab 8G7; 8G7 N-terminal anti-ALK antibody
As for B3, the binding result in assay [6] is listed as “binds”; in assay [7] it was “no binding”. Moreover, the “ELISA reading (name not given)” value in assay [3] worked out at 0.064; in assay [5], 0.56.

(Values after patent US20240262917A1 (Dana-Farber, published 2024).)
